The record followed here is patent US20220204643A1 (published 2022).

What all share (test): protein array
In assay [1] the target is T1, arginine and glutamate rich 1 (human, UniProt Q9NWB6 1-273).
T1 construct: on protein array; also called ARGLU1
T1 sequence: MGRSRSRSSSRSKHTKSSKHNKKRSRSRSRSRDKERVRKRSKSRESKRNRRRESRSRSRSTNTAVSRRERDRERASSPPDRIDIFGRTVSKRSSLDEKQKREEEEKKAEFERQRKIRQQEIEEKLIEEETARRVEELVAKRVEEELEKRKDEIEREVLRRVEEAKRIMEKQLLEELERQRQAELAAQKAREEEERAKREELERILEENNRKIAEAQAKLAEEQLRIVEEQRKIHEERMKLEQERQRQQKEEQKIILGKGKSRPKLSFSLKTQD

For assay [2], the target named is T2, SAS-6 centriolar assembly protein, transcript variant 2 (human, UniProt Q6UVJ0 168-657).
T2 construct: on protein array; also called SASS6
T2 sequence: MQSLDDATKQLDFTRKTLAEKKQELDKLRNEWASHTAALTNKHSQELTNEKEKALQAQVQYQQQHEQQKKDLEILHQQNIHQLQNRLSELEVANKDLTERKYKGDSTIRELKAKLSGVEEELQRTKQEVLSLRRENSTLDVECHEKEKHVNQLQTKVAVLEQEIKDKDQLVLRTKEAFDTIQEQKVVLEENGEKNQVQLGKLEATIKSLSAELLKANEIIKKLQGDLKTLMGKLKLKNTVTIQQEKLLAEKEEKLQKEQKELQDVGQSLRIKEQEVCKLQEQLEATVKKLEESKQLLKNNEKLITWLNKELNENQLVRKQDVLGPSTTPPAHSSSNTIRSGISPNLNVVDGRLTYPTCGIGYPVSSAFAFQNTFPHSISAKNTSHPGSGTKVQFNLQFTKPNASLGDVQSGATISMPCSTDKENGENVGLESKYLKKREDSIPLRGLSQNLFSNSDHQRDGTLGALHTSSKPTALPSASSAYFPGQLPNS

In assay [3] the target is T3, RAN binding protein 10, transcript variant 1 (human, UniProt Q6VN20 2-620).
T3 construct: on protein array; also called RANBP10

Assay [4] concerns the target T4, ubiquilin 1, transcript variant 2 (human, UniProt Q9UMX0 2-589).
T4 construct: on protein array; also called UBQLN1

Assay [5] has as its target T5, ubiquilin 2 (human, UniProt Q9UHD9 2-624).
T5 construct: on protein array; also called UBQLN2

Assay [6] deals with T6, Ubiquilin 3 (human, UniProt Q9H347 1-655).
T6 construct: on protein array; also called UBQLN3
T6 sequence: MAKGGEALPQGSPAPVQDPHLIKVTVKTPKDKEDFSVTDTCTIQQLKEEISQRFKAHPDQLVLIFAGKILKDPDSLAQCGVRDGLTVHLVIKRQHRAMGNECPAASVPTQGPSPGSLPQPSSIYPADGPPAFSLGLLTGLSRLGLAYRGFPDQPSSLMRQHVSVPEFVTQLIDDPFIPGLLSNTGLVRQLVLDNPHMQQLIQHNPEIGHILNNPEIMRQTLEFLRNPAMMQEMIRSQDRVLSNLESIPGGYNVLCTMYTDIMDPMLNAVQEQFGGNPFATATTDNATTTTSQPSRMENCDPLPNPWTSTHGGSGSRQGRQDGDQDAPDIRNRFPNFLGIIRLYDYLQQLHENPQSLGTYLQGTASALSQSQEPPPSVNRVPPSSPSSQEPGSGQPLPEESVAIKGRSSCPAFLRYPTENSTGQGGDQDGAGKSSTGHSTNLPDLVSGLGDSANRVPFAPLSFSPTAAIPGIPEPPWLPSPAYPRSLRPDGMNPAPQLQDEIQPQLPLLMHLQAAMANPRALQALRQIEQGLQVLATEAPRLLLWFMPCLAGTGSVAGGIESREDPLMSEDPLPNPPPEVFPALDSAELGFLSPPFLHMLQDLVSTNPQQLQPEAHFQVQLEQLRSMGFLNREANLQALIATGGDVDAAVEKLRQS

Assay [7] deals with T7, zinc finger protein 296 (human, UniProt Q8WUU4 1-475).
T7 construct: on protein array; also called ZNF296
T7 sequence: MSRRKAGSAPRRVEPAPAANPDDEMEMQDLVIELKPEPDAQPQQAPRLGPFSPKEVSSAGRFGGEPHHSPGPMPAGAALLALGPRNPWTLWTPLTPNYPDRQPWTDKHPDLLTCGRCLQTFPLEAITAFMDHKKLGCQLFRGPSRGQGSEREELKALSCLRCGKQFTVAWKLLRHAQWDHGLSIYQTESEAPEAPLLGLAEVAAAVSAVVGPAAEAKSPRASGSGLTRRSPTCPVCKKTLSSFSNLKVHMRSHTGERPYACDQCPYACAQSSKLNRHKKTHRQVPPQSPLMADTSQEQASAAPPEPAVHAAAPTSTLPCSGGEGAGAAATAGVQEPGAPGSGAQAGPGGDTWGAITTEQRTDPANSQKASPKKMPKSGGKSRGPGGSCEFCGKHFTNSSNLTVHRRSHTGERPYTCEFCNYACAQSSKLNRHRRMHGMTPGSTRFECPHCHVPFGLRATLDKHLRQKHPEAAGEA

Assay [8] has as its target phosphodiesterase 5A, transcript variant 1 (human, UniProt O76074 1-875).
The target in assay [9] is T8, hydroxymethylbilane synthase, transcript variant X3 (human, UniProt P08397 18-361).
T8 construct: on protein array; also called HMBS; IAMBS
T8 sequence: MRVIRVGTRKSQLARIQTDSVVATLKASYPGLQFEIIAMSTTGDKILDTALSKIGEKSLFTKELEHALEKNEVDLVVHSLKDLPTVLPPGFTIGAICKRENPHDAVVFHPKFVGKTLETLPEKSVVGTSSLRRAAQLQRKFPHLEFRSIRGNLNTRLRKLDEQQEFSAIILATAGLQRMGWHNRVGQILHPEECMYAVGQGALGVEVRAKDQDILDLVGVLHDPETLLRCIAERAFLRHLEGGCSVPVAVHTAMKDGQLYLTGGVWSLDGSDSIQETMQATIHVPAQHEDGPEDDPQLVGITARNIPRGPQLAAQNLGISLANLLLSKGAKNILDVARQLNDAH

Assay [10] concerns the target T9, hook microtubule tethering protein 2, transcript variant 2 (human, UniProt Q96ED9 1-719).
T9 construct: on protein array; also called HOOK2
T9 sequence: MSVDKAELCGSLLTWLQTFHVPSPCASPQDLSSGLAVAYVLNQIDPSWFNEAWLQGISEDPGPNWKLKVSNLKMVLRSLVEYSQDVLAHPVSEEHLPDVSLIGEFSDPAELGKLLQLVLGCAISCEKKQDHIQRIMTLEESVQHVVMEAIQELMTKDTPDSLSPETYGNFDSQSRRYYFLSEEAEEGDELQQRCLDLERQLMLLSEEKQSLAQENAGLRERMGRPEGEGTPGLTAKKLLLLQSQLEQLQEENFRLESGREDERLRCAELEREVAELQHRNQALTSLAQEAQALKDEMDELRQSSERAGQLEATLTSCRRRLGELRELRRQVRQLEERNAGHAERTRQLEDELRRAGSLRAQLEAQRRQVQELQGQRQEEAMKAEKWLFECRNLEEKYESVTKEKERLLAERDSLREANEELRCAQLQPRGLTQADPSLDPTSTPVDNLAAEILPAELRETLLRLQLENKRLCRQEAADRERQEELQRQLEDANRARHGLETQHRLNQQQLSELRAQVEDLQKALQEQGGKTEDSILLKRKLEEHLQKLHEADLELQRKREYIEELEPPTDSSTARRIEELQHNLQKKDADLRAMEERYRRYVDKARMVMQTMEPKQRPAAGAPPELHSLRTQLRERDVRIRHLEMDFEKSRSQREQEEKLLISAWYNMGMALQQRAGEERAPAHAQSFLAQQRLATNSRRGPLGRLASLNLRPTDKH

Assay [11] deals with T10, Bcl2 like 1 (human, UniProt Q07817 1-233).
T10 construct: on protein array; also called BCL2L1

Assay [12] addresses T11, anterior gradient 3, protein disulphide isomerase family member (human, UniProt Q8TD06 22-166).
T11 construct: on protein array; also called AGR3
T11 sequence: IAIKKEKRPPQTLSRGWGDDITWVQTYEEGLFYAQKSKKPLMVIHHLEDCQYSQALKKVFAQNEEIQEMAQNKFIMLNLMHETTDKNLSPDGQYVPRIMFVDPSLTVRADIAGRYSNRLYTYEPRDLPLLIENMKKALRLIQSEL

The target of assay [13] is T12, microtubule associated scaffold protein 2, transcript variant 2 (human, UniProt Q5JR59 1040-1369).
T12 construct: on protein array; also called MTUS2
T12 sequence: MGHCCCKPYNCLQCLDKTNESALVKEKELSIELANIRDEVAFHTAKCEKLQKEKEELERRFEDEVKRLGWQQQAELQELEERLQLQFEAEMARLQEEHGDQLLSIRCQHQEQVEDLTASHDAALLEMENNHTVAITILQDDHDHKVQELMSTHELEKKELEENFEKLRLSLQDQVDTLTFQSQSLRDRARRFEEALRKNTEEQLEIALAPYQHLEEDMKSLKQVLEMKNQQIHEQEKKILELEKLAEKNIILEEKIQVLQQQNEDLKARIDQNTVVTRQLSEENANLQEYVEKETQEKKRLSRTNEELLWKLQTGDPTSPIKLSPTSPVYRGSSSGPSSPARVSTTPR

T3 sequence (Q6VN20 2-620 limits assumed, change not shown): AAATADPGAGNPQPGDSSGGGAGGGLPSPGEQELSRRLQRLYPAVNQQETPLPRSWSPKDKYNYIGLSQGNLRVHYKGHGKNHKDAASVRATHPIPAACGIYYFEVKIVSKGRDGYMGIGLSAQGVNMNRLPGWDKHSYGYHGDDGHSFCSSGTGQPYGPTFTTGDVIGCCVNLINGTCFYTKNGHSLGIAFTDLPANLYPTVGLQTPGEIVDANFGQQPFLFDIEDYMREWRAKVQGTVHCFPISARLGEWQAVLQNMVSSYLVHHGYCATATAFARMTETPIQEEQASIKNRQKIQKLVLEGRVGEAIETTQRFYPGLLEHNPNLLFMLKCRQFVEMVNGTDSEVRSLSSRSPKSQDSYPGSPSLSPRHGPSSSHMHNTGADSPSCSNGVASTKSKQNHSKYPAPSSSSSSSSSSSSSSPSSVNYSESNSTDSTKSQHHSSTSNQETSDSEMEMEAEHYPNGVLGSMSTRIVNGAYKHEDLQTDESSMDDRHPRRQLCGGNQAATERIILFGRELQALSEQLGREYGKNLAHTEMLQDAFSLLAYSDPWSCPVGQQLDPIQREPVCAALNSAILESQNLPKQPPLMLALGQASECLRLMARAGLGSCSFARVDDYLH
T10 sequence (Q07817 whole entry): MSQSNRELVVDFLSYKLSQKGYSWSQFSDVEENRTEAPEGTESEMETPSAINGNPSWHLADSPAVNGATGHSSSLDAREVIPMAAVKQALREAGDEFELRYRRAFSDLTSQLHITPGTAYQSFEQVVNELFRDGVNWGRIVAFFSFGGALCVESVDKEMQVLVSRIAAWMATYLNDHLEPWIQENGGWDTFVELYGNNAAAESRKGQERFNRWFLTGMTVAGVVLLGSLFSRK
T5 sequence (Q9UHD9 2-624 limits assumed): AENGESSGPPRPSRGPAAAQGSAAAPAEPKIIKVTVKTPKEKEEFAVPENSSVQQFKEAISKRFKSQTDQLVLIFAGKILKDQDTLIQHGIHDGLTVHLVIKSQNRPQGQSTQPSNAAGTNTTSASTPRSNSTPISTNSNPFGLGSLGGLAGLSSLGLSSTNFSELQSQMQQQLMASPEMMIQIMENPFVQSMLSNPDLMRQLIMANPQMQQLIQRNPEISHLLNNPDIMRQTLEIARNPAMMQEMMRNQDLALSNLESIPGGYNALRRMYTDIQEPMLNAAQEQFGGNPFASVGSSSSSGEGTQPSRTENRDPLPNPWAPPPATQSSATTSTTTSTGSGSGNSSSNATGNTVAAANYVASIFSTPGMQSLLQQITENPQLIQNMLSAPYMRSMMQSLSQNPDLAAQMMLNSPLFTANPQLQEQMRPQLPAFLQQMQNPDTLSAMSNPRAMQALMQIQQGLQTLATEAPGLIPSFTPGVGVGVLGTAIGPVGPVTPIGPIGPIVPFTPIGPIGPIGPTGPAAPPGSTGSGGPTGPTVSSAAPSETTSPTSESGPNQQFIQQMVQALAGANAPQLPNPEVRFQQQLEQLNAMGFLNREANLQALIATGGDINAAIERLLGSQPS
T4 sequence (Q9UMX0 other isoform, or with tags, fused parts or gaps mutant limits assumed): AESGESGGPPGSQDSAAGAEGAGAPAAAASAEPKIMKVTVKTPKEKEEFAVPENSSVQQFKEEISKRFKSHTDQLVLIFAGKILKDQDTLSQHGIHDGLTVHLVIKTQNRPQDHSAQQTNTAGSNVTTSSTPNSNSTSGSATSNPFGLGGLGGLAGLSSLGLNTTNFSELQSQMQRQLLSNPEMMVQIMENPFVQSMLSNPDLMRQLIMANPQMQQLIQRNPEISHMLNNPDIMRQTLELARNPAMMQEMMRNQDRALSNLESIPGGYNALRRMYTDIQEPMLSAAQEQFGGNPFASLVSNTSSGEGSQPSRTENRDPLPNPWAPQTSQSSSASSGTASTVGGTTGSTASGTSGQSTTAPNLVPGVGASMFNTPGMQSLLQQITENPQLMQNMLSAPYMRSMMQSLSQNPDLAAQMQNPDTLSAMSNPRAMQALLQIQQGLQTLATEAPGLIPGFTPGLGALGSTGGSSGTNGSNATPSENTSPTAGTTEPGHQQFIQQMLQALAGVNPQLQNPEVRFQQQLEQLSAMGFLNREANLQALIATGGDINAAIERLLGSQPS

B1: TMEL1031 (antibody, V domains shown)
VH: EVQLVESGGGLVQPGGSLRLSCAASGFTVSSNYMSWVRQAPGKGLEWVSVIYSGGSTYYADSVKGRFTISRDNSKNTLSLQMNSLRAEDTAVYYCARESSAAGYDYWGQGTLVTVSS
VL: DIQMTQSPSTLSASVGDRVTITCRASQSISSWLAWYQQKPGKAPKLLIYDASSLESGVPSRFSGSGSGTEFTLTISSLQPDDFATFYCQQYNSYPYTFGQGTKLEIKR
notes: VH/VL tied via antigen in summary, not by name in this stretch
Consider B1, for which the binding result in assay [1] and in [2] was “binds” throughout.

B2: TMEL1017 (antibody, V domains shown)
VH: EVQLVESGGGLVKPGGSLRLSCAASGFTFSNYNMNWVRQAPGKGLEWVSSISSSSSYIYYADSVKGRFTISRDNAKNSLYLQMNSLRAEDTAVYYCARDALDFDWLLSAGGFDYWGQGTLVTVSS
VL: ASALTQPASVSGSPGQSITISCTGTSSDVGGYNYVSWYQQHPGKAPKLMIYEVSNRPSGVSNRFSGSKSGNTASLTISGLQAEDEADYYCSSYTSSSTLVFGGGTKLTVLG
notes: as for B1
Turning to B2, in assay [3], the binding result is recorded as “binds”.

B3: TMEL1018 (antibody, V domains shown)
VH: PLQLQESGPGLVKPSETLSLTCTVSGGSISSSSYYWGWIRQPPGKGLEWIGSIYYSGSTYYNPSLKSRVTISVDTSKNQFSLKLSSVTAADTAVYSCARLLVGGAFDIWGQGTMVTVSS
VL: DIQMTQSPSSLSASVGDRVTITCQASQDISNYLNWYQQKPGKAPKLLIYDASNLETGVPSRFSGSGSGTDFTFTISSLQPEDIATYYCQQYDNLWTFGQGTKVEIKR
notes: as for B1
B3: the binding result in assay [4], in [5] and in assay [6] was “binds” in each case.

B4: TMEL1028 (antibody, V domains shown)
VH: QVQLVQSGAEVKKPGASVKVSCKASGYTFTSYGISWVRQAPGQGLEWMGWISAYNGNTNYAQKLQGRVTMTTDTSTSTAYMELRSLTSDDTAVYYCARDQGLERANWFDPWGQGTLVTVSS
VL: not shown
notes: as for B1
As for B4, the binding result in [7] and in [8] was “binds” throughout.

B5: TLUS1006 (antibody, V domains shown)
VH: PVHLVQSGAEVRKPGSSVKVSCMASGGSFNTYAVNWVRQAPGQGLEWMGGIIPVFGTTNYAPRFQGRVTITADESTSTVYMELTSLTSEDTAVYYCARDRDSGYERNCLDPWGQGTLVTVSS
VL: DIVMTQSPDSLAVTLGERATINCRSSQTVLYDSNNKNYLAWYQQKPGQPPKLLIYWASIRESGVPDRFSGSGSGTDFTLTINTLQAEDVAIYFCQQYFTTPRTFGQGTKVEIKR
notes: as for B1
Regarding B5, the binding result in assay [9] and in [10] was “binds” throughout.

B6: TMEL1030 (antibody, V domains shown)
VH: QVQLQESGPGLVKPSGTLSLTCAVSGGSISSSNCWSWVRQPPGKGLEWLGEICHSGSTSYNPSLKSRVTISVDKSKNQFSLKLRSVTAADTAVYYCARESPLTVVFDYWGQGTLVTVSS
VL: DIQMTQSPSSLSASVGDRVTITCRASQGIRNDLGWFQQKPGKAPKRLIYAASNLPSGVSSRFSGSGSGTEFTLTISSLQPEDFATYYCLQHNNYPLTFGQGTKVEFKR
notes: as for B1
As for B6, in assay [11], the binding result is listed as “binds”.

B7: TMEL1020 (antibody, V domains shown)
VH: QVHLVQSGAEVKKPGASVKVSCKASGYTFTNYFIHWVRQAPGQGPEWMGVINPSFGSTTYAQKLQGRVTMTRETSTSTVYMELSSLRSEDTAVYYCARESLDSASYSTIAHWGQGTLVTVSS
VL: EIVLAQSPGTLYLSPGERATLSCRASQSVRGNYLAWYQQRPGQAPRLLIYGASSRATGIPDRFGGSGSGTDFTLTITRLLPEDFAVYYCHQYGSSPRTFGQGTKVEIKR
notes: as for B1
Turning to B7, in assay [12], the binding result is given as “binds”.

B8: TMEL1027 (antibody, V domains shown)
VH: QVQLVQSGAEVKKPGASVKVSCKASGYTFTVYYMHWVRQAPGQGLEWMGRINPNSGGTNYAQKFQGRVTMTRDTSISTAYMELSRLTSDDTAVYYCARVVVVGTDYGMDVWGQGTTVTVSS
VL: VSSELTQDPAVSVALGQTVRITCQGDSLRSYYASWYQQRPGQAPVLVIYGKNNRPSGIPDRFSGSSSGNTASLTITGAQAEDEADYYCNSRDSSGNHVFGTGTKVTVLG
notes: as for B1
For the molecule B8, the binding result in assay [13] is listed as “binds”.
